B1: IRBP-SN (SEQ ID NO:181) (peptide)
peptide: IVTRVPVIG
notes: Homologue of IRBP-60-68 with several residues replaced; synthetic
B2: IRBP-ZE (SEQ ID NO:187) (peptide)
peptide: IVIRTPIIT
notes: as for B1
B3: IRBP-AT (SEQ ID NO:182) (peptide)
peptide: IVVRNPTAG
notes: as for B1
B4: IRBP-LU (SEQ ID NO:188) (peptide)
peptide: VVTSVPHIT
notes: as for B1
B5: IRBP-OS (SEQ ID NO:183) (peptide)
peptide: TVAKTPTIG
notes: as for B1
B6: IRBP-CP (SEQ ID NO:186) (peptide)
peptide: KVIRVPRIG
notes: as for B1
B7: IRBP-CM (SEQ ID NO:184) (peptide)
peptide: LVVSPPRIG
notes: as for B1
B8: IRBP-MT (SEQ ID NO:179) (peptide)
peptide: IVYQVPTIG
notes: as for B1
B9: IRBP-VV-1 (SEQ ID NO:185) (peptide)
peptide: IVSMVPKIG
notes: as for B1
B10: IRBP-VV-2 (SEQ ID NO:180) (peptide)
peptide: IVISVPTIG
notes: as for B1
B11: IRBP-1-68 polypeptide (SEQ ID NO:1) (peptide)
chain: SRCQGKSSWPQLVGSTGAAAKAVIERENPRVRAVIIKVGSGATKDFRCDRVRVWVTERGIVARPPTIG

The first assay has as its target T1, insulin receptor on human lymphocyte cells (IM-9) (human, UniProt P06213 28-1382).
T1 construct: whole, on cells; Endogenous receptor of IM-9 cells; also called IR; insulin receptors
Put plainly: whole cell receptor binding assay on IM-9 cells with 125I-insulin; EC50 of promoting 125I-insulin binding.
As a reminder, the EC50 is the concentration at which the effect is half-maximal. IVARPPTIG (synthetic) [IRBP-60-68 (SEQ ID NO:7)] had an EC50 of 0.77 nM. The molecule VIIKVGSGATKDFRCDRVR (synthetic) [IRBP-34-52 (SEQ ID NO:4)] showed an EC50 of more than 25 nM. RVRVWVTERGIVARPPTIG [IRBP-50-68 (SEQ ID NO:6)] registered an EC50 of 0.73 nM.

For DFRCDRVRVWVTERGIVARPPTIG (synthetic) [IRBP-45-68 (SEQ ID NO:5)], the EC50 is more than 25 nM. For SRCQGKSSWPGLVGSTGAA (synthetic) [IRBP-1-19 (SEQ ID NO:2)], it took 15.3 nM to reach a half-maximal effect (EC50).

The target in another assay is T1, insulin receptor on human lymphocyte …. The assay is described as above. This is another data set of the same source. As to the method: (§1) After incubation, the cells were chilled, centrifuged at 2000 rpm for 10 min at 4° C., and the pellets were washed twice with an ice-cold wash buffer (10 mmol/L Tris and 150 mmol/L NaCl, pH 7.6). The pellet was counted by a gamma counter. The assays were performed at least three times for each polypeptide. […] The lower value of EC₅₀ represents a stronger effect on promoting the binding.
Consider B1, for which the EC50 turned out to be 9.79 nM.

In turn, B2 displayed an EC50 of 4.94 nM.

IVARPPAIG [IRBP-MC (SEQ ID NO:21)]: a half-maximal response (EC50) required 0.86 nM. As to B3, the EC50 amounted to 9.98 nM. Compared with the last molecule, the EC50 is about 12-fold higher.

Molecule B4 showed an EC50 of 9.7 nM. On the same count and under the same terms, to B5 belongs 9.93 nM; to B6, 0.84 nM; to B7, 0.92 nM.

As to B8, the EC50 was 0.77 nM. The EC50 values of the last two molecules are within 1.5-fold of each other.

The molecule B9 came in with an EC50 of 0.96 nM. This EC50 and that of the molecule before are within 1.5-fold of each other. Turning to B10, the EC50 stood at 4.98 nM.

The next assay has the same target. Put plainly: whole cell receptor binding assay on IM-9 cells with 125I-insulin; EC50 defined as the concentration promoting 50% of the 125I-insulin to bind. On the procedure: as §1
With B11, it took 4.15 nM to reach a half-maximal effect (EC50).

These data come from US20130310313A1 (CHINA MEDICAL UNIVERSITY, published 2013).
